Results reported in publication PMC2873993, “Comparative Therapeutic Effects of Velaglucerase Alfa and Imiglucerase in a Gaucher Disease Mouse Model” (PLoS ONE, 2010).
Numbering of substitutions follows the chain as printed.

T1: saposin C (Homo sapiens, UniProt P07602)
T1 construct: Saposin C was expressed in E. coli and purified as described [40]; made in house; host or cells: E. coli
T1 sequence (P07602 311-390 limits assumed): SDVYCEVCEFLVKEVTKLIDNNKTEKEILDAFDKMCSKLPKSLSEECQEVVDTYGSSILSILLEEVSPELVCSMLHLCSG

B1: velaglucerase alfa (protein)
chain: ARPCIPKSFGYSSVVCVCNATYCDSFDPPTFPALGTFSRYESTRSGRRMELSMGPIQANHTGTGLLLTLQPEQKFQKVKGFGGAMTDAAALNILALSPPAQNLLLKSYFSEEGIGYNIIRVPMASCDFSIRTYTYADTPDDFQLHNFSLPEEDTKLKIPLIHRALQLAQRPVSLLASPWTSPTWLKTNGAVNGKGSLKGQPGDIYHQTWARYFVKFLDAYAEHKLQFWAVTAENEPSAGLLSGYPFQCLGFTPEHQRDFIARDLGPTLANSTHHNVRLLMLDDQRLLLPHWAKVVLTDPEAAKYVHGIAVHWYLDFLAPAKATLGETHRLFPNTMLFASEACVGSKFWEQSVRLGSWDRGMQYSHSIITNLLYHVVGWTDWNLALNPEGGPNWVRNFVDSPIIVDITKDTFYKQPMFYHLGHFSKFIPEGSQRVGLVASQKNDLDAVALMHPDGSAVVVVLNRSSKDVPLTIKDPAVGFLETISPGYSIHTYLWRRQ
modifications: N-linked oligosaccharides with higher α-mannosyl content (predominant number of mannoses is 9)
B2: imiglucerase (protein)
chain: B1 chain with R495H
modifications: short N-linked oligosaccharide chains with ~3 exposed α-mannosyl residues

Columns and labels:
[1] = GCase activity assay with 4MU-Glc substrate; assay type: biochemical; settings: for GCase activity, 4MU-Glc: mean ± SE; for GCase activity, 4MU-Glc / Km: n = 6
Protocol: (§1) Vela and Imig were compared for kinetic properties as described. Briefly, the standard GCase activity assay contained final concentrations of 50 mM citrate/phosphate, pH 5.5, 0.25% TC, 0.25% TX, and 4 mM 4MU-Glc in 200 µl. The reactions were stopped after incubation (30–60 min, 37°C) using 0.9 M ethylenediamine, pH 11.0 (100 µl). Standard curves for 4-MU fluorescence yield were generated for each assay with Ex/Em 460/515 nm (Molecular Dynamics SpectraMax GeminXS spectrofluorometer). […] For the reversible competitive inhibitors, Ki was calculated from IC50 = Ki (1+ [I]/[Km]). The IC50 or Ki values for various inhibitors (dNM and its derivatives, CBE, CS, IFG, DNPFG) were determined using 4MU-Glc as substrate. Activities with the NBD-GC substrate were as described. Enzyme assays with saposin C (0–500 nM/0.5 µM BPS) and BPS (0–2 µM) were as described, [40]. Saposin C was expressed in E. coli and purified as described. For thermostability assessments, equal amounts of Vela and Imig activities were added to 50 mM citrate/phosphate, pH 7.4, with or without human/mouse serum, and incubated for 0–240 min at 25 or 37°C. The pH optimum profiles were developed using 50 mM citrate/phosphate, pH 4.4–7.2. Protease susceptibilities of the two GCases were evaluated by cathepsin D (1–2 µM) digestion in 25 mM sodium acetate, pH 4.8, 50 mM NaCl, 1.25 mM EDTA, 1.25 mM DTT using 200 ng of Vela or Imig at 37°C for 4 h. All assays were conducted in triplicate and repeated at least twice. The amounts of intact enzyme were determined from density measurements on immunoblots and were compared to the initial amounts. The ratios of intact enzyme with and without cathepsin D were used as indicators of the enzyme's proteolytic susceptibility.

[2] = Quantification of functional active sites with single turnover substrate DNPFG; assay type: biochemical; settings: for Active sites, 2,4-DNPFG: mole ratio of 2,4-DNP released and enzyme protein, mean ± SE, n = 8
Protocol: Catalytic activities of Vela and Imig were analyzed with 4MU-Glc and GC substrates. Vela had ∼6–10% reproducibly greater activity compared to Imig (Table 1). The functional active sites of these two enzymes were quantified using the single turnover substrate DNPFG, and consistent with the hydrolytic activity, ∼5–7% more functional active sites were quantified with Vela than with Imig (Table 1).
as §1, with “The ratios of intact enzyme with and without cathepsin D were used as indicators of the enzyme's proteolytic susceptibility.” left out

[3] = pH- and thermostability of enzyme activity in buffer or serum; assay type: physicochemical; settings: for irreversible loss of activity by 2 h / loss of activity by 4 h: pH 7.4, citrate/phosphate buffer or mouse or human serum, 37 or 25°C
Protocol: as §1

saposin C = target: T1, saposin C; experiment: Activation of GCase by saposin C in detergent-free system; assay type: biochemical; settings: for saposin C concentration of maximum activation: in the presence of 0.5 µM BPS; for increase of activity with saposin C: saposin C 0 to 500 nM, detergent-free
Protocol: (§2) Activation of Vela and Imig by the negatively charged lipid, BPS, and saposin C was determined in a detergent-free system with varying concentrations of either agent. The activities of both enzymes increased by 5- to 6-fold or 15- to 17-fold with saposin C (0 to 500 nM) or BPS (0 to 2 µM), respectively. […] Similarly, in the absence of saposin C, both enzymes reacted maximal activation with 0.5 µM of BPS. No significant differences were found in these responses (p = 0.5875–0.8473).
as §1

[4] = Activation of GCase by BPS in detergent-free system; assay type: biochemical; settings: for increase of activity with BPS: BPS 0 to 2 µM, detergent-free; for BPS concentration of maximal activation: in the absence of saposin C
Protocol: as §2, §1

[5] = pH optimum profile of GCase activity; assay type: biochemical; settings: profile pH 4.4–7.2
Protocol: as §1, with “For thermostability assessments, equal amounts of Vela and Imig activities were added to 50 mM citrate/phosphate, pH 7.4, with or without human/mouse serum, and incubated for 0–240 min at 25 or 37°C. The pH optimum profiles were developed using 50 mM citrate/phosphate, pH 4.4–7.2.” left out, “All assays were conducted in triplicate and repeated at least twice.” left out, “The ratios of intact enzyme with and without cathepsin D were used as indicators of the enzyme's proteolytic susceptibility.” left out

9 V/null mice [6] = experiment: GC levels in liver, spleen and lung after weekly enzyme injections; assay type: in vivo, mouse; settings: for GC lipid levels in lung: 5 and 15 U/kg/wk; for reduction of GC levels in liver: 15 U/kg/wk (before 8 wks); for decrease of GC in lung (suggested trend): variable; for reduction of GC levels in spleen: all three dosing groups; for reduction of GC levels and storage cell numbers in livers / reduction of GC levels and storage cell numbers in spleens: dose dependent, 5, 15 or 60 U/kg/wk, abstract
Source text: (§3) Mice were sacrificed one week after the last injection, and sera and organs were collected for serologic studies, GCase activities, GC levels, and quantification of storage cells. At one week after the last injection, the GCase activities in liver, spleen, and lung had returned to background levels (not shown).
(§4) Mice were anesthetized with isoflurane.
GC levels in liver, lung, and spleen from 9 V/null and WT mice were quantified by LC/MS-MS (Lipidomic Core, University of South Carolina). The GC levels were normalized to protein in the same lysates used for GCase activity and expressed as the percentage change relative to the GC levels of matched samples from saline-injected mice. WT lysates were used as a reference. The Student's t-test was used for statistical comparisons.

9 V/null mice [7] = experiment: Storage cell quantification in liver and lung; assay type: in vivo, mouse; settings: for numbers of storage cells in lungs (CD68): any dose
Source text: as §3, §4
Duplicate tissue sections were fixed in 10% formalin for hematoxylin and eosin (H&E) staining and in 4% paraformaldehyde-PBS, pH 7.4 for immunohistochemistry with CD68 antibody and examined using a Zeiss microscope equipped with SPOT Advance software (SPOT Diagnostic Instruments, Inc.). […] Mice (n = 6–14) in the Vela-, Imig-, or saline-treated groups were used, and the resultant data were analyzed using the Student's t-test.

[8] = 5 or 15 U/kg/wk, week 4 or 8, compared to saline-injected controls

| Molecule | GCase activity, 4MU-Glc [1] | Km [1] [µM] | Active sites, 2,4-DNPFG [2] [%] | t1/2 of GCase activity ([3]; 25°C + h-serum) [h] | t1/2 of GCase activity ([3]; 25°C + m-serum) [h] | t1/2 of GCase activity ([3]; 25°C in CP, pH 7.4) [h] | t1/2 of GCase activity ([3]; 37°C + h-serum) [h] | t1/2 of GCase activity ([3]; 37°C + m-serum) [h] | t1/2 of GCase activity ([3]; 37°C in CP, pH 7.4) [h] | irreversible loss of activity by 2 h [3] [%] | loss of activity by 4 h [3] | saposin C concentration of maximum activation (saposin C) [nM] | increase of activity with saposin C (saposin C) | increase of activity with BPS [4] | BPS concentration of maximal activation [4] [µM] | pH of peak activity [5] | GC lipid levels in lung (9 V/null mice [6]) | decrease of GC levels in liver (9 V/null mice [6]; [8]) | reduction of GC levels in liver (9 V/null mice [6]) [%] | decrease of GC in lung (suggested trend) (9 V/null mice [6]; 60 U/kg/wk, 8 wks) [%] | also measured |
| --- | --- | --- | --- | --- | --- | --- | --- | --- | --- | --- | --- | --- | --- | --- | --- | --- | --- | --- | --- | --- | --- |
| B1 | 1,030,480±2,692 nmole/h/mg | 1590 ± 200 | 97.4±0.6 | 2.933 ± 0.0978 | 3.235 ± 0.102 | 1.977 ± 0.0318 | 2.117 ± 0.169 | 2.31 ± 0.0637 | 1.82 ± 0.0025 | > 50 | 70–85% | 200 | 5- to 6 fold | 15- to 17 fold | 0.5 | 5.4–5.6 | unchanged | 50–70% | ~66 | ~10 | greater activity compared to Imig ([1]; 4MU-Glc and GC substrates): 6–10%; more functional active sites than Imig ([2]; DNPFG): 5–7%; decrease of GC levels in liver (9 V/null mice [6]; 60 U/kg/wk, week 4): ~85%; reduction of GC levels in spleen (9 V/null mice [6]; 4 wks): 10–15%; reduction of GC levels in spleen (9 V/null mice [6]; 8 wks): 20–30%; reduction of GC levels and storage cell numbers in livers (9 V/null mice [6]): 60–95%; reduction of GC levels and storage cell numbers in spleens (9 V/null mice [6]): 10–30%; numbers of storage cells in lungs (CD68) (9 V/null mice [7]): not different from saline control; difference in cellular clearance compared to Imig (9 V/null mice [7]; lungs, Gaucher cells, not significant): ~10% |
| B2 | 966,000±8,467 nmole/h/mg | 1650 ± 250 | 91.6±2.2 | 3.107 ± 0.106 | 3.587 ± 0.253 | 2.04 ± 0.129 | 2.125 ± 0.169 | 2.455 ± 0.124 | 1.858 ± 0.0413 | > 50 | 70–85% | 200 | 5- to 6 fold | 15- to 17 fold | 0.5 | 5.4–5.6 | unchanged | 50–70% | ~55 | ~10 | decrease of GC levels in liver (9 V/null mice [6]; 60 U/kg/wk, week 4): ~70%; reduction of GC levels in spleen (9 V/null mice [6]; 4 wks): 10–15%; reduction of GC levels in spleen (9 V/null mice [6]; 8 wks): 20–30%; reduction of GC levels and storage cell numbers in livers (9 V/null mice [6]): 60–95%; reduction of GC levels and storage cell numbers in spleens (9 V/null mice [6]): 10–30%; numbers of storage cells in lungs (CD68) (9 V/null mice [7]): not different from saline control |
